Assay results taken from patent US9192657B2, “Activated protein C variants with normal cytoprotective activity but reduced anticoagulant activity” (The Scripps Research Institute, dated 2015).
Changes are numbered by the printed parent chain. Names may count otherwise. Blank lines part the entries; values can stand above or below the binder they belong to.

What was measured:
[1] = target: T1, endothelial protein C receptor (EPCR) on cells (Homo sapiens (Human), UniProt Q9UNN8); experiment: cell-based or functional assay
T1 sequence: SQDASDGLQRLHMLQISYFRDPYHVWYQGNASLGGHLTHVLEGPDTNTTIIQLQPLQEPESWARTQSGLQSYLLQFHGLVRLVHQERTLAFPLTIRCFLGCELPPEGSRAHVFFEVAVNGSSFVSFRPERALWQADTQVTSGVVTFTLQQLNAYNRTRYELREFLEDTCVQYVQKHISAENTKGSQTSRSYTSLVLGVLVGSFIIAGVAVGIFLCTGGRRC

[2] = target: T2, protease activated receptor-1 (PAR-1) (Homo sapiens (Human), UniProt P25116); experiment: cell-based or functional assay
T2 sequence: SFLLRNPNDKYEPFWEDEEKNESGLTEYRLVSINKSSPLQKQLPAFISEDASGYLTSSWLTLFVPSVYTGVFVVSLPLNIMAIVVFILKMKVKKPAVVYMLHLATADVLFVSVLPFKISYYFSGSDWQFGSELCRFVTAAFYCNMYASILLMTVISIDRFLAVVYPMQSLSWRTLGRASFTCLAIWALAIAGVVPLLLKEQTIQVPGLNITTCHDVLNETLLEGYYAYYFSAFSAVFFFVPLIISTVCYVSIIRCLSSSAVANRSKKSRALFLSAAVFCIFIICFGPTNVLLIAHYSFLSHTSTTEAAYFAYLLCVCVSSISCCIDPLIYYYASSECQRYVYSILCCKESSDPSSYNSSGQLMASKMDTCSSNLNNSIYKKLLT

[3] = target: T3, endothelial protein C receptor (EPCR), as in the binding assays (Homo sapiens (Human), UniProt Q9UNN8); experiment: apparent Kd; binding to immobilized soluble EPCR and to K293 cells transfected with wtEPCR (format of the value not told)
T3 sequence: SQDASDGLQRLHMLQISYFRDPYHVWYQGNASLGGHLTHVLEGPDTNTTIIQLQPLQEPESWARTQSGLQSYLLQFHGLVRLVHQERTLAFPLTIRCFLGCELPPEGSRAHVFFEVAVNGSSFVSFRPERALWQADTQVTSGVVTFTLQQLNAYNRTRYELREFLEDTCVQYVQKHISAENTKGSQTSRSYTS

[4] = target: T1, endothelial protein C receptor (EPCR) …; experiment: cell-based or functional assay; remark: listed apart in the source
[5] = target: T2, protease activated receptor-1 (PAR-1); experiment: cell-based or functional assay; remark: listed apart in the source
[6] = target: T1, endothelial protein C receptor (EPCR) …; experiment: cell-based or functional assay; remark: listed apart in the source
[7] = target: factor Va (human, UniProt P12259); experiment: cell-based or functional assay
[8] = target: T2, protease activated receptor-1 (PAR-1); experiment: cell-based or functional assay; remark: listed apart in the source

half-maximum inhibition of staurosporine-induced endothelial cell apoptosis (Example 5) [1]: 0.7 nM | half-maximum inhibition of staurosporine-induced endothelial cell apoptosis (Example 5) [2]: 0.7 nM | Kd [3]: 29 nM
B1: RR229/230AA plus KKK191-193AAA-APC (enzyme)
chain: ANSFLEELRHSSLERECIEEICDFEEAKEIFQNVDDTLAFWSKHVDGDQCLVLPLEHPCASLCCGHGTCIDGIGSFSCDCRSGWEGRFCQREVSFLNCSLDNGGCTHYCLEEVGWRRCSCAPGYKLGDDLLQCHPAVKFPCGRPWKRMEKKRSHLKRDTEDQEDQVDPRLIDGKMTRRGDSPWQVVLLDSAAALACGAVLIHPSWVLTAAHCMDESKKLLVRLGEYDLAAWEKWELDLDIKEVFVHPNYSKSTTDNDIALLHLAQPATLSQTIVPICLPDSGLAERELNQAGQETLVTGWGYHSSREKEAKRNRTFVLNFIKIPVVPHNECSEVMSNMVSENMLCAGILGDRQDACEGDSGGPMVASFHGTWFLVGLVSWGEGCGLLHNYGVYTKVSRYLDWIHGHIRDKEAPQKSWAP

half-maximum inhibition of staurosporine-induced apoptosis (EA.hy926 cells, Apopercentage dye) [1]: 0.14 nM | half-maximum inhibition of staurosporine-induced apoptosis (Eahy926 cells, Apopercentage staining) [1]: 0.2 nM | reduction of activated caspase-3-positive endothelial cells after staurosporine [1]: ~70% | half-maximum inhibition of staurosporine-induced apoptosis (EA.hy926 cells, Apopercentage dye) [2]: 0.14 nM | half-maximum inhibition of staurosporine-induced apoptosis (Eahy926 cells, Apopercentage staining) [2]: 0.2 nM | reduction of activated caspase-3-positive endothelial cells after staurosporine [2]: ~70% | cytoprotective activity (% wt-APC) [4]: 120 % wt-APC | cytoprotective activity (% wt-APC) [5]: 120 % wt-APC | cytoprotective activity (% rwt-APC), from the concentrations for half-maximal inhibition of apoptosis [6]: 114 % rwt-APC | anticoagulant activity (% rwt-APC), APTT clotting assay in human plasma [7]: 4.6 % rwt-APC | cytoprotective activity (% rwt-APC), from the concentrations for half-maximal inhibition of apoptosis [8]: 114 % rwt-APC
B2: KKK191-193AAA-APC (enzyme)
chain: B1 chain with A229R, A230R

cytoprotective activity (% wt-APC), staurosporine-induced apoptosis of Eahy926 cells [4]: < 1 % wt-APC | cytoprotective activity (% wt-APC), staurosporine-induced apoptosis of Eahy926 cells [5]: < 1 % wt-APC
B3: R306A/K311A/R312A/R314A-APC (enzyme)
chain: B1 chain with A191K, A192K, A193K, A229R, A230R, R306A, K311A, R312A, R314A
